The results in this text go back to PMC3654483 (Bioscience Reports, 2013).

The series deals with the molecule itself. The series is described as follows: AUC.

B1: Sirt1-214-747 (domain or fragment)
chain: ELDDMTLWQIVINILSEPPKRKKRKDINTIEDAVKLLQECKKIIVLTGAGVSVSCGIPDFRSRDGIYARLAVDFPDLPDPQAMFDIEYFRKDPRPFFKFAKEIYPGQFQPSLCHKFIALSDKEGKLLRNYTQNIDTLEQVAGIQRIIQCHGSFATASCLICKYKVDCEAVRGDIFNQVVPRCPRCPADEPLAIMKPEIVFFGENLPEQFHRAMKYDKDEVDLLIVIGSSLKVRPVALIPSSIPHEVPQILINREPLPHLHFDVELLGDCDVIINELCHRLGGEYAKLCCNPVKLSEITEKPPRTQKELAYLSELPPTPLHVSEDSSSPERTSPPDSSVIVTLLDQAAKSNDDLDVSESKGCMEEKPQEVQTSRNVESIAEQMENPDLKNVGSSTGEKNERTSVAGTVRKCWPNRVAKEQISRRLDGNQYLFLPPNRYIFHGAEVYSDSEDDVLSSSSCGSNSDSGTCQSPSLEEPMEDESEIEEFYNGLEDEPDVPERAGGAGFGTDGDDQEAINEAISVKQEVTDMNYPSNKS
Consider B1, for which the binding result is given as “binds”.

B2: Sirt1-214-664 (domain or fragment)
chain: ELDDMTLWQIVINILSEPPKRKKRKDINTIEDAVKLLQECKKIIVLTGAGVSVSCGIPDFRSRDGIYARLAVDFPDLPDPQAMFDIEYFRKDPRPFFKFAKEIYPGQFQPSLCHKFIALSDKEGKLLRNYTQNIDTLEQVAGIQRIIQCHGSFATASCLICKYKVDCEAVRGDIFNQVVPRCPRCPADEPLAIMKPEIVFFGENLPEQFHRAMKYDKDEVDLLIVIGSSLKVRPVALIPSSIPHEVPQILINREPLPHLHFDVELLGDCDVIINELCHRLGGEYAKLCCNPVKLSEITEKPPRTQKELAYLSELPPTPLHVSEDSSSPERTSPPDSSVIVTLLDQAAKSNDDLDVSESKGCMEEKPQEVQTSRNVESIAEQMENPDLKNVGSSTGEKNERTSVAGTVRKCWPNRVAKEQISRRLDGNQYLFLPPNRYIFHGAEVYSDSEDD
In the case of B2, the binding result is given as “binds”.
